{"source": "the supplement of paper PMC9170038", "data": [{"system": "MS2 coat protein", "assay": "apparent KD of MS2 coat protein; higher = weaker reporter binding", "details": "Eterna round: R107; input ligand: none", "procedure,_shortened": "(§1)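 On-chip transcription from Illumina sequencing clusters produced the designed RNA switches. These were titrated with SNAP-549-labelled MS2 coat protein (twofold steps, 0.7 or 1.5 nM to 3 µM) in 100 mM Tris-HCl pH 7.5, 80 mM KCl, 4 mM MgCl2, with or without constant ligand. The apparent KD given is the per-design median of normalised cluster binding-curve fits.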", "units": {"apparent KD of MS2 coat protein": "nM"}, "values": [{"sequence": "AACGUAUACAGAAGGAGCGUGAAUUAUAUUACUCAUUGUUAUACAUGAGGAUCACCCAUGUCACAGGUAGGUCGCUGUAUUCGUA [JR_ExcArginiB_Sub018]", "apparent KD of MS2 coat protein": 131}, {"sequence": "ACAUUUAACUGAAGGAGCGUGAUUUCUACAACAUGAGGAUCACCCAUGUUCAUUACUCAUUCACAGGUAGGUCGCAGACUAAUGA [JR_SSArginiB_Sub031]", "apparent KD of MS2 coat protein": 20.2}, {"sequence": "AUUAAGAAUAUGUAGACGGCGGAGAAGAGACGAGGACCGGUACGGCCGCCACUCGUGUUAGUUAACAUGAGGAUCACCCAUGUUA [#08 Tryptophan A Same State]", "apparent KD of MS2 coat protein": 12.1}, {"sequence": "AGAGUUAGACAAAAGUCUAGCUCACCAGAAGGAGCGUCCGAAAGGACAGGUAGGUCGCUGGUACACGAGGAUCACCCGUGUUCCU [ArgAS 16 #OpenEnded #AlternativeMS2]", "apparent KD of MS2 coat protein": 38.6}, {"sequence": "GGAUAGGACAGAAGGAGCGACAUGAGGAUCACCCAUGUGGAUCAACGACGAAAGUCGCCAUGUCAGGUAGGUCGCUGUCCUAUCG [ArgXB 8 #MS2Gate #StaticStem #MS2LeftOffAptamer]", "apparent KD of MS2 coat protein": 511}, {"sequence": "AGCCCGUGAGCGGCCGCCACUGGAGGCUUUGCGCGACAUGAGGAUCACCCAUGUGUGCCCGGCGUUAGGACCGGGCUCACGUGGU [#1 Same State - Tryptophan B Attempt #20 (HarryS)]", "apparent KD of MS2 coat protein": 182}, {"sequence": "CCCAAAUAGAUCUUUGGAAUUUUACUCGAAGGAGCGUCAUAGUAGGCAGGUAGGUCGCGAGACAUGAGGAUCACCCAUGUAGAGA [kinmullin]", "apparent KD of MS2 coat protein": 53.7}, {"sequence": "AUGCAUAGCGGAAGGAGCGCAAUAGAAUGACAUGAGGAUCACCCAUGUGUGUGAUGUGGGUUGCAGGUAGGUCGCCGAGUGGUAU [Exclusion - Arginine B (Freestyle 2)]", "apparent KD of MS2 coat protein": 92}, {"sequence": "UCAUGAGUUUCGGAUACCAGUGAUGUCGAUACAUGAGGAUCACCCAUGUUAGAGGAUGUACACCCUUGGCAGCCGGGUGUGGCGG [ooimullin]", "apparent KD of MS2 coat protein": 143}, {"sequence": "AUUUGUACUUAGUGUUGAGUUCUGUCGGAAGGAGCGGAAUAUAAUCCAGGUAGGUCGCCGACAGACAUGAGGAUCACCCAUGUAA [#09 Exclusion - Arginine A]", "apparent KD of MS2 coat protein": 38.3}, {"sequence": "ACAUGAGGAUCACCCAUGUAUUACCGGGAAGGAGCGCGUAAGGACGCAGGUAGGUCGCUCGGCGUCGUGCUGGAAAGCACGACGA [#1 Same State - Arginine A Attempt #23 (HarryS)]", "apparent KD of MS2 coat protein": 14.1}, {"sequence": "CGCACAUGAGGAUCACCCAUGUGAGGGUACCGAGGACCGGUACGGCCGCCACUCGCAGGACAUGAGGAUCACCCAUGUGCCGCCG [SSTA DOUBLE!!! :-D #6]", "apparent KD of MS2 coat protein": 38.3}, {"sequence": "AGGACUUGCGUUCAAAAUCCCAUGUUGGAAGGAGCGCAUAUAGUUGCAGGUAGGUCGCCGACAUGAGGAUCACCCAUGUCUUUUC [Zasorequer]", "apparent KD of MS2 coat protein": 40.3}, {"sequence": "AUCGGCCAGGGAAGGAGCGUGAAGACAUGAGGAUCACCCAUGUAGAGGCGCCGAAGGCGUUCGCAGGUAGGUCGCCCUGGCUGAU [#1 Same State - Arginine B Attempt #27 (HarryS)]", "apparent KD of MS2 coat protein": 14.7}, {"sequence": "GGGUGCGGGCGAAGGAGCGUGAAGACAUGAGGAUCACCCAUGUAGAGGCCCGAACAGGGUUCGCAGGUAGGUCGCGCGCGUGCCC [#1 Same State - Arginine B Attempt #5 (HarryS)]", "apparent KD of MS2 coat protein": 15.6}, {"sequence": "UCCUGCAGAGCGGCCGCCACUGUAUUGCGUGAGGAUGACCCAACAUGAGGAUCACCCAUGUUGUUUAGGACCGGGCUUGCCACCA [lkpmullin]", "apparent KD of MS2 coat protein": 14.2}, {"sequence": "GGACUAACCAGAAGGAGCGACACGCAGAAACUGCAAAAUCCUCCACACGAGGAUCACCCGUGUCAGGUAGGUCGCUGGUUAGUCG [ArgXB 16 #Zipper #MS2Left #StaticStem #Blueprint]", "apparent KD of MS2 coat protein": 75.3}, {"sequence": "AAAGGAAGGUAAAAUAAAACUACAUGUGAAGGAGCGCGCGAAAGCGCAGGUAGGUCGCACAUGAGGAUCACCCAUGUCCUUCCAA [MAT - Exclusion Arginine A - Mod of Eli - D4]", "apparent KD of MS2 coat protein": 104}, {"sequence": "UGUAUGUGAUCUGAUACCAGAGUUGAUAACCUGAGGAUCACCCUGGUAAAGGCGAAAGCCCUCCCUUGGCAGCAGAUCGCAUACU", "apparent KD of MS2 coat protein": 216}, {"sequence": "GUAAAUUAUAGAAGGAGCGUCGAAAAUGGGUAAACAUGAGGAUCACCCAUGUAAAGGGAACGACAGGUAGGUCGCUAUAAUUUAC [AstromonsSSArgB#15]", "apparent KD of MS2 coat protein": 170}]}, {"system": "MS2 coat protein", "assay": "apparent KD of MS2 coat protein; higher = weaker reporter binding", "details": "Eterna round: R107; input ligand: theophylline 20 uM", "procedure,_shortened": "as §1", "units": {"apparent KD of MS2 coat protein": "nM"}, "values": [{"sequence": "AACGUAUACAGAAGGAGCGUGAAUUAUAUUACUCAUUGUUAUACAUGAGGAUCACCCAUGUCACAGGUAGGUCGCUGUAUUCGUA [JR_ExcArginiB_Sub018]", "apparent KD of MS2 coat protein": 126}, {"sequence": "UCUUUCUAUAGUGAUACCAGACGUACAUGAGGAUCACCCAUGUUACAUUCUUGGUUAAAAGUCCCUUGGCAGCACGAUUUGUUCG [JR_Nu_ExcTheophyB_Sub027]", "apparent KD of MS2 coat protein": 10.9}, {"sequence": "ACAUUUAACUGAAGGAGCGUGAUUUCUACAACAUGAGGAUCACCCAUGUUCAUUACUCAUUCACAGGUAGGUCGCAGACUAAUGA [JR_SSArginiB_Sub031]", "apparent KD of MS2 coat protein": 26.8}, {"sequence": "GAGGAAACUCACAUGAGGAUCACCCAUGUACGAGGACCGGUACGGCCGCCACUCGAAACCAUGGGCGGUUGUACAUGGAAACAUG [Design 2]", "apparent KD of MS2 coat protein": 33.3}, {"sequence": "AUUAAGAAUAUGUAGACGGCGGAGAAGAGACGAGGACCGGUACGGCCGCCACUCGUGUUAGUUAACAUGAGGAUCACCCAUGUUA [#08 Tryptophan A Same State]", "apparent KD of MS2 coat protein": 14.1}, {"sequence": "AGAGUUAGACAAAAGUCUAGCUCACCAGAAGGAGCGUCCGAAAGGACAGGUAGGUCGCUGGUACACGAGGAUCACCCGUGUUCCU [ArgAS 16 #OpenEnded #AlternativeMS2]", "apparent KD of MS2 coat protein": 40.4}, {"sequence": "CUAUAAGUACCGGUCCUCAGAUCCUCAUGACGAGGACCGGUACGGCCGCCACUCGAAACAUGAGGAUCACCCAUGUAAUAAUAUC [Brourdmod13]", "apparent KD of MS2 coat protein": 43.4}, {"sequence": "GGAUAGGACAGAAGGAGCGACAUGAGGAUCACCCAUGUGGAUCAACGACGAAAGUCGCCAUGUCAGGUAGGUCGCUGUCCUAUCG [ArgXB 8 #MS2Gate #StaticStem #MS2LeftOffAptamer]", "apparent KD of MS2 coat protein": 549}, {"sequence": "AGCCCGUGAGCGGCCGCCACUGGAGGCUUUGCGCGACAUGAGGAUCACCCAUGUGUGCCCGGCGUUAGGACCGGGCUCACGUGGU [#1 Same State - Tryptophan B Attempt #20 (HarryS)]", "apparent KD of MS2 coat protein": 302}, {"sequence": "CCCAAAUAGAUCUUUGGAAUUUUACUCGAAGGAGCGUCAUAGUAGGCAGGUAGGUCGCGAGACAUGAGGAUCACCCAUGUAGAGA [kinmullin]", "apparent KD of MS2 coat protein": 35.5}, {"sequence": "AGAUUCGACACGGCCGCCACUUGGAGUGGCUGCUAGCAUGUUACACAUGAGGAUCACCCAUGUCUAAGGACCGGGUGUUGAGUCU [XTryp B #24]", "apparent KD of MS2 coat protein": 79.2}, {"sequence": "AUGCAUAGCGGAAGGAGCGCAAUAGAAUGACAUGAGGAUCACCCAUGUGUGUGAUGUGGGUUGCAGGUAGGUCGCCGAGUGGUAU [Exclusion - Arginine B (Freestyle 2)]", "apparent KD of MS2 coat protein": 128}, {"sequence": "UCAUGAGUUUCGGAUACCAGUGAUGUCGAUACAUGAGGAUCACCCAUGUUAGAGGAUGUACACCCUUGGCAGCCGGGUGUGGCGG [ooimullin]", "apparent KD of MS2 coat protein": 102}, {"sequence": "UAUAUAUAAAUUGAUACCAGCGAGAAAACAUGAGGAUCACCCAUGUUCGCCCAUGUUAAGCGCCCUUGGCAGCAAUAUUAUUAUU [AstrosExyTheB#3]", "apparent KD of MS2 coat protein": 33.4}, {"sequence": "UCUCACAUGAGGAUCACCCAUGUUAAGGCCCGAGGACCGGUACGGCCGCCACUCGUUGGAAGCCGGUAACGUACGAAUCUUCCGU [theeternabot_sameState_MS2_Trp_A_18]", "apparent KD of MS2 coat protein": 26.9}, {"sequence": "GUUAUAUGAAAACAUAUAACAGUGGGUGAACGAGGACCGGUACGGCCGCCACUCGGACAUGAGGAUCACCCAUGUCCAUGUGAAA [AstrosExyTryA#6]", "apparent KD of MS2 coat protein": 17.4}, {"sequence": "AUUUGUACUUAGUGUUGAGUUCUGUCGGAAGGAGCGGAAUAUAAUCCAGGUAGGUCGCCGACAGACAUGAGGAUCACCCAUGUAA [#09 Exclusion - Arginine A]", "apparent KD of MS2 coat protein": 38.9}, {"sequence": "ACAUGAGGAUCACCCAUGUAUUACCGGGAAGGAGCGCGUAAGGACGCAGGUAGGUCGCUCGGCGUCGUGCUGGAAAGCACGACGA [#1 Same State - Arginine A Attempt #23 (HarryS)]", "apparent KD of MS2 coat protein": 20.7}]}]}
